Source: patent publication US20060024661A1, “Modulation of CRF potentiation of NMDA receptor currents via CRF receptor 2” (The Regents of the University of California, priority 2003, published 2006)

Assays:
[1] = target: CRF receptor 1 (CRF-R1) (mouse) (UniProt P35347); experiment: cell-based or functional assay
[2] = target: CRF receptor 2 (CRF-R2) (mouse) (UniProt Q60748); experiment: cell-based or functional assay
CRF receptor 2 (CRF-R2) (mouse), sequence (Q60748 20-411): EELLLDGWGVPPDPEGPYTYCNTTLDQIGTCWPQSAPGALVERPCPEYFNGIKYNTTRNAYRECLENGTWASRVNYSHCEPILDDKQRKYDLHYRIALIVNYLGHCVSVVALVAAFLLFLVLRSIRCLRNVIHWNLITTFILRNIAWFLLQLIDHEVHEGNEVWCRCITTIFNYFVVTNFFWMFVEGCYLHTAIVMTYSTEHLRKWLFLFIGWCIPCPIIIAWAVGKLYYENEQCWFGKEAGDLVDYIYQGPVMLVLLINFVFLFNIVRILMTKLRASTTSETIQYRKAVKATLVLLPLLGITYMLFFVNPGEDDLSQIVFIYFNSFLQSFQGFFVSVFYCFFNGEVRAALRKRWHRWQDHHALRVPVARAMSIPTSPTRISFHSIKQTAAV

CRF receptor 1 (CRF-R1) (mouse), sequence (P35347 24-415): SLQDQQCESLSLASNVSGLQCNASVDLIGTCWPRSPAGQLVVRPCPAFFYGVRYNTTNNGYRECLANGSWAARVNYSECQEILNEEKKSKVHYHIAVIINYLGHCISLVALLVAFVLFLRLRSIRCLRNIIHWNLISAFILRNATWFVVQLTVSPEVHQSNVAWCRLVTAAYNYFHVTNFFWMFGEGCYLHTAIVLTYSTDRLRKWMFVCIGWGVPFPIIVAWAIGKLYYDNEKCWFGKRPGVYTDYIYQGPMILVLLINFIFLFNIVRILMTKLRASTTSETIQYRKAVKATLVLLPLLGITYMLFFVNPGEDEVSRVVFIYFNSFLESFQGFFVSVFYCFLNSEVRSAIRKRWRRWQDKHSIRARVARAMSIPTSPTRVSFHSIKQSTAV

hippocampal CA1 field potentials (% of baseline), CRF 1 µM plus 3 µM CP-154,526 (selective CRF-R1 antagonist, small molecule) [1] | hippocampal CA1 field potentials (% of baseline), CRF 1 µM, 15 mins after CRF onset [1] | NMDAR-mediated EPSCs (% of baseline) in VTA dopamine neurons, CRF 100 nM, 25 mins after CRF onset [2] | NMDAR EPSCs (% of baseline) 15 mins after CRF onset in the presence of 30 nM Antisauvagine-30 [2] | Substance
82.9% | 143% | 128% | – | human/rat corticotrophin-releasing factor (CRF) (from UniProt P06850 154-194) (peptide)
– | – | – | 114% | Antisauvagine-30 (peptide)
